In the nanobody polyreactivity screen of Harvey et al. (2022):

Test: yeast display, Sf9 membrane polyspecificity reagent, FACS + sequencing; frameworks hold sequencing errors
Outline: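 A synthetic nanobody library was expressed on Saccharomyces cerevisiae BJ5465 by galactose induction for 36–48 hours. The library was stained for 1 hour at 4 °C with 10% biotinylated, detergent-solubilized Sf9 membrane reagent and enriched with streptavidin microbeads before FACS. Low and high (top ~1%) gates were set on anti-HA fluorescence for expression and streptavidin fluorescence for reagent binding, and each polyreactivity label reflects the gate of origin.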

Sequence | polyreactivity (PSR sort gate)
QVQLVESGGGLVQAGGSLRLSCAASGRTFRRYAMGWYRQAPGKERELVASISTSGGSTYADSVKGRFTISRDNAKNTVYLQMNSLKPEDTAVYYCAVRSPRYVRNGDYWGQGTQVTVSS | high polyreactivity
QVQLVESGGGLVQAGGSLRLSCAASGRTFRSDNAMGWYRQAPGKERELVAAISQGGGTYYADSVKGRFTISRDNAKNTVYLQMNSLKPEDTAVSYCARDAYYADPSLWYYTYDYWGQCTQVTVSS | low polyreactivity
QVQLVESGGGLVQAGGSLRLSCAASGRTFRSYAMGRYRQAPGKVRELVAAISYGGGSTYYADSVKGRFTISRDNAKNTVYLQMNSLKPEDTAVYYCAAAGNKRGGYDYWGQGTQVTVSS | high polyreactivity
QVQLVESGGGLVQAGGSLRLSCAASGRTFRTNDMGWYRQAPGKERELVAAISRGGGSTYYADSVKGRFTISRDNAKNTVYLQMNSLKPEDTAVYYCNALRNGIAFGAMDYWGQGTQVTVSS | high polyreactivity
QVQLVESGGGLVQAGGSLRLSCAASGRTFRTYAMGWYRQAPGKERELVAAISRTGRTNYADSVKGRFTISRDNAKNTVYLQMNSLKPEDTAVYYCAADRVGWSGYRGDYWGQGTQVTVSS | high polyreactivity
QVQLVESGGGLVQAGGSLRLSCAASGRTFRTYTMGWYRQAPGKEREFVAAINKSGGTTNYADSVKGRFTISRDNAKNTVYLQMNSLKPEDTAVYYCAKRGRSTYGYDYWGQGTQVTVSS | high polyreactivity
QVQLVESGGGLVQAGGSLRLSCAASGRTFRTYTMGWYRQAPGKERELVAAISRGGSTNYADSVKGRFTISRDNAKNTVYLQMNSLKPEYTAVYYCNAKASFWSPYDDWGQGTQVTVSS | high polyreactivity
QVQLVESGGGLVQAGGSLRLSCAASGRTFRTYTMGWYRQAPGKERELVATISWSGGSTNYADSVKGRFTISRDNAKNTVYLQMNSLKPEDTAVYYCNAYVSPRYRGSRYYYWGQGTQVTVSS | high polyreactivity
QVQLVESGGGLVQAGGSLRLSCAASGRTFRVYAMGWYRQAPGKERELVAAITGSGDSTYYADSVKGRFTISRDNAKYTVYLQMNSLKPEDTAVYYCNAVYRSTFDYWGQGTQVTVSS | high polyreactivity
QVQLVESGGGLVQAGGSLRLSCAASGRTFRVYAMGWYRQAPGKERELVAAITRGGSTYYADSVKGRFTISRDNAKNTVYLQMNSLKPEDTAVYYCAADVLRTQPIGWYSHSPLEYWGQGTQVTVSS | high polyreactivity
QVQLVESGGGLVQAGGSLRLSCAASGRTFRWYAMGWYRQAPGKERELVASITWSGGSTYYADSVKGRFTISRDNAKNTVYLQMNSLKPEDTAVYYCNRVLVVSMYEGNYWGQGTQVTVSS | high polyreactivity
QVQLVESGGGLVQAGGSLRLSCAASGRTFRYNAMGWYRQAPGKERELVAAITYSGGTTYADSVKGRFTISRDNAKNTVYLQMNSLKPEDTAGYYCAARGYVWNIGRYYWGQGTQVTVSS | high polyreactivity
QVQLVESGGGLVQAGGSLRLSCAASGRTFRYNAMGWYRQAPGKERELVAGIRWSGDRTYYADSVKGRFTISRDNAKNTVYLQMNSLKPEDTAVYYCNKVYHPGYGVRATYDYWGQGTQVTVSS | high polyreactivity
QVQLVESGGGLVQAGGSLRLSCAASGRTFRYNAMGWYRQAPGKERELVAGITYYGGSTSYADSVKGRFTISRDNAKNTVYLQMNSLKPEDTEVYYCNVVYNYYGRFGSWGQGTQVTVSS | high polyreactivity
QVQLVESGGGLVQAGGSLRLSCAASGRTFRYNAMGWYRQAPGKERELVARITVIGDSTYYADSVKGRFTISRDNAKNTVYLQMNSLKPEDTAVYYCAAVSRRVSPYLSARDYWGQGTQVTVSS | high polyreactivity
QVQLVESGGGLVQAGGSLRLSCAASGRTFRYNAMGWYRQAPGKERELVASITYRGGSTYYADSVKGRFTISRDNAKNTVYLQMNSLKPEDTGVYYCATSVYSRPRKPRYYYWGQGTQVTVSS | high polyreactivity

Sequence | polyreactivity (PSR sort gate)
QVQLVESGGGLVQAGGSLRLSCAASGRTFRYNDMGWYRQAPGKERELVAAITYTADRTYYADSVKGRFTISRDNAKNTVYLQMNSLKPEDTAVYYCNAAYGRRVTFRPYYWGQGTQVTVSS | high polyreactivity
QVQLVESGGGLVQAGGSLRLSCAASGRTFRYNTMGWYRQAPGKERELVASISWGGGSTYYADSVKGRFTISRDNAKNTVYLQMNSLKPEDTAVYYCAARRWGQFRFEYWGQGTQVTVSS | high polyreactivity
QVQLVESGGGLVQAGGSLRLSCAASGRTFRYNTMGWYRQAPRKERELFAAISRGGRTYYADSVKGRFTISRDNAKNTVYLQMNSLKPEVTAVDYCAAPAAGDEYDYWGQGTQVTVSS | high polyreactivity
QVQLVESGGGLVQAGGSLRLSCAASGRTFRYYAKGWYRQAPGKERELVAAITVTVTSTFYADSVKGRFTISRDNAKNTVYLQMNSLKPEDTAVYYCAKVDRQSPGQYYYWGQGTQVTVSS | low polyreactivity
QVQLVESGGGLVQAGGSLRLSCAASGRTFRYYAMGWYRPATGKERELVADISSTGRTYYADSVKGRFTISRDNAKNTVYLQMNSLKPEDTAVYYCNADYFFEFDYWGQGTQVTVSS | low polyreactivity
QVQLVESGGGLVQAGGSLRLSCAASGRTFRYYAMGWYRQAPGKERELVAAIDTSSGSTYYADSVKGRFTISRDNAKNTVYLQMNSLKPEDTAVYYCNATWWIPLIYDYWGQGTQVNVSS | low polyreactivity
QVQLVESGGGLVQAGGSLRLSCAASGRTFRYYAMGWYRQAPGKERELVAAINRGGSTYYADSVKGRFTISRDNAKNTVYLQMNSLKPEDTAVYYCNFDKYRIVGFHSPYDYWGQGSQVTVSS | high polyreactivity
QVQLVESGGGLVQAGGSLRLSCAASGRTFRYYAMGWYRQAPGKERELVAAISRRGGSTFYADSVKGRFTISRDNAKNTVYLQMNSLKPEDTAVYYCAAADRYASDTGGYWGQGTQVTVSS | high polyreactivity
QVQLVESGGGLVQAGGSLRLSCAASGRTFRYYAMGWYRQAPGKERELVAAISWSGVRTYYADSVKGRFTISRDNSKNTVYLQMNSLKPEDTAVYYCAKGGYWGQGTQVTVSS | high polyreactivity
QVQLVESGGGLVQAGGSLRLSCAASGRTFRYYAMGWYRQAPGKERELVAAITSGGSTYYADSVKGRFTISRDNAKNTVYLQMNSLKPEDTAVYYCNAFFATGVDYWGQGTQVTVSS | high polyreactivity
QVQLVESGGGLVQAGGSLRLSCAASGRTFRYYAMGWYRQAPGKERELVADISWSGGRTSYADSVKGRFTISRDNAKNTVYLQMNSLKPEDTAVYYCAKVLYYPSHVYWGQGTQVTVSS | high polyreactivity
QVQLVESGGGLVQAGGSLRLSCAASGRTFRYYAMGWYRQAPGKERELVASISSSGSTNYADSVKGRFTISRDNAKNTVYLQMNSLKPEDTAVYYCAAESRYPFIYEYWGQGTQVTVSS | low polyreactivity
QVQLVESGGGLVQAGGSLRLSCAASGRTFRYYAMGWYRQAPGKERELVATISSGGSTNYADSVKGRFTISRDNAKNTVYLQMNSLKPEDTAVYYCARYSYRGTNVRYDYWGQGTQVTVSS | high polyreactivity
QVQLVESGGGLVQAGGSLRLSCAASGRTFRYYDMGRYRQAPGKERELVAAISSSGDRTYYADSVKGRFTISRDNAKNTVYLQMNSLKPEDTAVYYCAADRGARGDYWGQGTQVTVSS | high polyreactivity
QVQLVESGGGLVQAGGSLRLSCAASGRTFRYYDMGWYRQAPGKEREFVAAITWRGGSTYYADSVKGRFTISRDYAKNTVYLQMNSLTPEDTAVYYCATDSLRLYGGKRDLYYWGQGTQVTVSS | low polyreactivity
QVQLVESGGGLVQAGGSLRLSCAASGRTFRYYTMGWYRQAPGKEREFVAAISSTGGTYYADSVKGRFTISRDNAKNTVYFQMNSLKPEDTAVYYCAAYRWGILSAYYYAWYGYWGQGTQVTVSS | low polyreactivity
